In data set [1] the target is Influenza A virus hemagglutinin fused to mEGFP (HA-wt-mEGFP) (Influenza A virus).
Data set [2] concerns the molecule itself. Nature of the data set: Number&Brightness analysis (fluorescence fluctuation spectroscopy, molecular brightness); living U2OS cells expressing the mEGFP fusion; brightness normalised to 1xmEGFP and corrected for non-fluorescent mEGFP with pf = 0.72 from 2xmEGFP.

For “Influenza A virus hemagglutinin fused to mEGFP (HA-wt-mEGFP) (natural protein)”, the stoichiometry N in data set [1] was 3.17.

B1: E. coli glutamine synthetase fused to mEGFP (GlnA-mEGFP) (enzyme, UniProt P0A9C5 1-469, looked up)
chain: MSAEHVLTMLNEHEVKFVDLRFTDTKGKEQHVTIPAHQVNAEFFEEGKMFDGSSIGGWKGINESDMVLMPDASTAVIDPFFADSTLIIRCDILEPGTLQGYDRDPRSIAKRAEDYLRSTGIADTVLFGPEPEFFLFDDIRFGSSISGSHVAIDDIEGAWNSSTQYEGGNKGHRPAVKGGYFPVPPVDSAQDIRSEMCLVMEQMGLVVEAHHHEVATAGQNEVATRFNTMTKKADEIQIYKYVVHNVAHRFGKTATFMPKPMFGDNGSGMHCHMSLSKNGVNLFAGDKYAGLSEQALYYIGGVIKHAKAINALANPTTNSYKRLVPGYEAPVMLAYSARNRSASIRIPVVSSPKARRIEVRFPDPAANPYLCFAALLMAGLDGIKNKIHPGEAMDKNLYDLPPEEAKEIPQVAGSLEEALNELDLDREFLKAGGVFTDEAIDAYIALRREEDDRVRMTPHPVEFELYYSV
notes: also called GlnA complex; copies: 12
Turning to B1, in data set [2], the “stoichiometry N” value amounted to 11.9.

The values are drawn from publication PMC6045628 (Scientific Reports, 2018).
